Test results from paper doi:10.1101/2024.10.11.617635 (bioRxiv, 2024).

B1: NADK (non-methylated; construct not stated) (enzyme, human, UniProt O95544 1-446, looked up)
chain: MEMEQEKMTMNKELSPDAAAYCCSACHGDETWSYNHPIRGRAKSRSLSASPALGSTKEFRRTRSLHGPCPVTTFGPKACVLQNPQTIMHIQDPASQRLTWNKSPKSVLVIKKMRDASLLQPFKELCTHLMEENMIVYVEKKVLEDPAIASDESFGAVKKKFCTFREDYDDISNQIDFIICLGGDGTLLYASSLFQGSVPPVMAFHLGSLGFLTPFSFENFQSQVTQVIEGNAAVVLRSRLKVRVVKELRGKKTAVHNGLGENGSQAAGLDMDVGKQAMQYQVLNEVVIDRGPSSYLSNVDVYLDGHLITTVQGDGVIVSTPTGSTAYAAAAGASMIHPNVPAIMITPICPHSLSFRPIVVPAGVELKIMLSPEARNTAWVSFDGRKRQEIRHGDSISITTSCYPLPSICVRDPVSDWFESLAQCLHWNVRKKQAHFEEEEEEEEEG
B2: methylated NADK (construct not stated) (enzyme, human, UniProt O95544 1-446, looked up)
chain: B1 chain
modifications: arginine methylation (the paper's sites are R39, R41 and R45, mono- and di-methylated); extent not stated

Biological target: the molecule itself

Row | Protein | stoichiometry N
1 | B1 | 4
2 | B2 | 4
